Results as given in patent publication US20250352659A1, “SELF-STABILIZING LINKER CONJUGATES” (priority 2023, published 2025).
Like-named read-outs stand apart in the source and are kept apart here.

Columns and labels:
Assay type in all cases: physicochemical
[1] = Conjugator-antibody conjugate stability in pH 7.4 and 8.0 buffer with and without GSH;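 note: conjugate hydrolysis tracked by LC-MS analysis of reduced samples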
[2] = Conjugator-antibody conjugate stability in formulation buffer (pH 5.5 20 mM histidine buffer); conditions: pH 5.5, 22 °C
Protocol: After the conjugation and hydrolysis steps described above (see “DAR8 antibody drug conjugate/conjugator-antibody conjugate preparation”), conjugator-antibody conjugates were incubated in formulation buffer (pH 5.5 20 mM histidine buffer) or glutathione (GSH) buffer (pH 7.4 or 8.0), […] Hydrolysis status was monitored via reduced LCMS. Results are presented in Table 6, Table 7, and FIGS. 2A-23B.

[3] = Conjugator-antibody conjugate maleimide hydrolysis (ring opening) kinetics by reduced LCMS; conditions: for half-life: buffer; for RO Completed Time (>95%): time for the maleimide ring to open in more than 95% of the conjugators
Protocol: After the conjugation step, the ADC (or conjugator-antibody conjugate) was subjected to buffer exchange into ring opening buffer (pH 6.5˜9.0, PBS, borate or tris buffer) and the solution was left at 22 or 37° C. for 1˜48 h. The maleimide ring opening process was monitored via reduced LCMS. Once the conjugated maleimide hydrolysis was completed, the resulting ADCs were buffer exchanged into basic tris pH 8.0-8.5 buffer or acidic histidine-acetate pH 5.0-6.5 buffer via dialysis.
LCMS method to monitor and determine maleimide hydrolysis. LC-MS analysis was carried out under the following measurement conditions: • LC-MS system: Vanquish Flex UHPLC and Orbitrap Exploris 240 Mass Spectrometer • Column: MAbPac™ RP, 2.1*50 mm, 4 μm, 1,500 Å, Thermo Scientific™ • Column temperature: 80° C. • Mobile phase A: 0.1% formic acid (FA) aqueous solution • Mobile phase B: Acetonitrile solution containing 0.1% formic acid (FA) • Gradient program 1: 25% B-25% B (0 min-2 min), 25% B-50% B (2 min-18 min), 50% B-90% B (18 min-18.1 min), 90% B-90% B (18.1 min-20 min), 90% B-25% B (20 min-20.1 min), 25% B-25% B (20.1 min-25 min) • Gradient program 2 • Injected sample amount: 2 μg • MS parameters: Intact and denaturing MS data were acquired in HMR mode at setting of R=15k and deconvolved using the ReSpect™ algorithm and Sliding Window integration in Thermo Scientific™ BioPharma Finder™ 4.0 software.
Results for ring opening times measured by the LCMS method described above for monitoring ring hydrolysis are presented in Table 3 as RO T1/2 (h) (i.e., the time, in hours, for 50% of the maleimide rings to open).
Conjugator-antibody conjugate maleimide hydrolysis (ring opening) kinetics are presented in FIGS. 1A-1L, Table 3 (for pH 7.0 reaction conditions, hydrolysis T1/2), and Table 5. The data in Table 5 was generated by the LCMS method described above and includes the time, in hours, for the maleimide ring to open in more than 95% of the conjugators, after antibody conjugation (“RO Completed Time (>95%) (h)”). The results for conjugator-antibody conjugate 3-1 indicate that after 24 hours, about 0% of maleimide rings were open; the results for conjugator-antibody conjugate 3-3 indicate that after 24 hours, about 28% of maleimide rings were open.

[4] = pH 7.0, time for 50% of the maleimide rings to open, read-out: RO T1/2 (converted)

Row | SMILES | MS DAR-T = 0 h [2] | MS DAR ([3]; pH 7, time point 1 h) | RO (%) LC ([3]; pH 7, time point 1 h) | MS DAR ([3]; pH 7, time point 3 h) | RO (%) HC ([3]; pH 7, time point 3 h) | RO (%) LC ([3]; pH 7, time point 3 h) | RO (%) Total ([3]; pH 7, time point 3 h) | MS DAR ([3]; pH 7, time point 5 h) | RO (%) HC ([3]; pH 7, time point 5 h) | RO (%) LC ([3]; pH 7, time point 5 h) | RO (%) Total ([3]; pH 7, time point 5 h) | MS DAR ([3]; pH 7, time point 7 h) | RO (%) HC ([3]; pH 7, time point 7 h) | RO (%) LC ([3]; pH 7, time point 7 h) | RO (%) Total ([3]; pH 7, time point 7 h) | MS DAR ([3]; pH 7, time point 24 h) | RO (%) HC ([3]; pH 7, time point 24 h) | RO (%) LC ([3]; pH 7, time point 24 h) | RO (%) Total ([3]; pH 7, time point 24 h) | RO Completed Time (>95%) ([3]; pH 7) | other results
1 | NCC(COC(=O)NCCOCCOCCOCCOCCC(=O)O)N1C(=O)C=CC1=O (stereo not drawn) [3-4] | 8.00 | 7.96 | 23.19% | 7.98 | 88.19% | 75.33% | 84.98% | 7.98 | 90.01% | 87.91% | 89.49% | 7.98 | 99.07% | 95.37% | 98.15% | 7.98 | 99.08% | 99.66% | 99.23% | 7 h | MS DAR ([1]; incubation 20 h, pH 7.4, 22 °C): 8.00; MS DAR ([1]; incubation 20 h, pH 7.4, 37 °C): 8.00; MS DAR ([1]; incubation 20 h, pH 8.0, 22 °C): 8.00; MS DAR-T = 168 h ([2]; incubation 168 h): 8.00; Maleimide ring opening ratio (%) at T = 168 h ([2]; incubation 168 h): 98.86%; half-life [3, 4]: 1.6 h; RO (%) HC ([3]; pH 7, time point 1 h): 51.56%; RO (%) Total ([3]; pH 7, time point 1 h): 44.47%
2 | CN(C)C(=O)CCOCC(N)CN1C(=O)C=CC1=O (stereo not drawn) [3-7] | 8.00 | 8.52 | 28.33% | 8 | 79.61% | 60.08% | 74.73% | 8 | 88.54% | 77.85% | 85.87% | 8 | 87.98% | 86.34% | 87.57% | 8 | 90.8% | 92.99% | 91.35% | >24 h | MS DAR ([1]; incubation 20 h, pH 7.4, 22 °C): 8.00; MS DAR ([1]; incubation 20 h, pH 7.4, 37 °C): 8.00; MS DAR ([1]; incubation 20 h, pH 8.0, 22 °C): 8.00; MS DAR-T = 168 h ([2]; incubation 168 h): 8.00; Maleimide ring opening ratio (%) at T = 168 h ([2]; incubation 168 h): 97.99%; half-life ([3]; pH 7): 1.7 h; RO (%) HC ([3]; pH 7, time point 1 h): 40.83%; RO (%) Total ([3]; pH 7, time point 1 h): 37.71%
3 | CN(C)C(=O)CN(C)C(=O)OCC(CN)N1C(=O)C=CC1=O (stereo not drawn) [3-8] | 7.76 | 7.74 | 44.94% | 7.88 | 96.11% | 80.15% | 92.12% | 7.78 | 99.49% | 92.96% | 97.85% | 7.8 | 99.47% | 94.42% | 98.21% | 7.8 | 99.55% | 95.48% | 98.53% | 5 h | MS DAR ([1]; incubation 20 h, pH 7.4, 22 °C): 7.92; MS DAR ([1]; incubation 20 h, pH 7.4, 37 °C): 7.92; MS DAR ([1]; incubation 20 h, pH 8.0, 22 °C): 7.88; MS DAR-T = 168 h ([2]; incubation 168 h): 7.80; Maleimide ring opening ratio (%) at T = 168 h ([2]; incubation 168 h): 95.50%; half-life [3, 4]: 1.6 h
4 | CC(C)N(CCC(=O)N(C)C)C(=O)OCC(CN)N1C(=O)C=CC1=O (stereo not drawn) [3-9] | 8.00 | 7.94 | 40.06% | 7.94 | 99.84% | 79.93% | 94.86% | 7.96 | 99.07% | 89.36% | 96.64% | 7.96 | 100% | 93.56% | 98.39% | 7.96 | 100% | 99.17% | 99.79% | 5 h | MS DAR ([1]; incubation 20 h, pH 7.4, 22 °C): 8.00; MS DAR ([1]; incubation 20 h, pH 7.4, 37 °C): 8.00; MS DAR ([1]; incubation 20 h, pH 8.0, 22 °C): 8.00; MS DAR-T = 168 h ([2]; incubation time printed 240 h): 8.00; Maleimide ring opening ratio (%) at T = 168 h ([2]; incubation time printed 240 h): 98.51%; half-life [3, 4]: 0.8 h; RO (%) HC ([3]; pH 7, time point 1 h): 66.09%; RO (%) Total ([3]; pH 7, time point 1 h): 59.58%
5 | CN(C)C(=O)CCCCC(CN)N1C(=O)C=CC1=O (stereo not drawn) [3-10] | 8.00 | 8 | 21.63% | 8 | 76.09% | 49.46% | 69.43% | 8 | 91.86% | 64.05% | 84.91% | 8 | 98.26% | 83.47% | 94.56% | 8 | 99.52% | 100% | 99.64% | 7 h | MS DAR ([1]; incubation 20 h, pH 7.4, 22 °C): 8.00; MS DAR ([1]; incubation 20 h, pH 7.4, 37 °C): 8.00; MS DAR ([1]; incubation 20 h, pH 8.0, 22 °C): 8.00; MS DAR-T = 168 h ([2]; incubation 168 h): 8.00; Maleimide ring opening ratio (%) at T = 168 h ([2]; incubation 168 h): 98.38%; half-life [3, 4]: 2 h; RO (%) HC ([3]; pH 7, time point 1 h): 42.51%; RO (%) Total ([3]; pH 7, time point 1 h): 37.29%
6 | CN(C)C(=O)CCNC(=O)NCC(CN)N1C(=O)C=CC1=O (stereo not drawn) [3-12] | 8.02 | 8 | 27.31% | 8 | 89.82% | 74.84% | 86.08% | 8 | 95.33% | 78.30% | 91.07% | 8 | 99.07% | 88.53% | 96.44% | 8 | 99.64% | 95.87% | 98.70% | 7 h | MS DAR ([1]; incubation 24 h, pH 7.4, 22 °C): 8.00; MS DAR ([1]; incubation 24 h, pH 7.4, 37 °C): 8.00; MS DAR ([1]; incubation 24 h, pH 8.0, 22 °C): 8.00; MS DAR-T = 168 h ([2]; incubation 168 h): 8.02; Maleimide ring opening ratio (%) at T = 168 h ([2]; incubation 168 h): 97.83%; half-life [3, 4]: 1.6 h; RO (%) HC ([3]; pH 7, time point 1 h): 45.46%; RO (%) Total ([3]; pH 7, time point 1 h): 40.92%
7 | CN(C)C(=O)CCNC(=O)OCCC(CN)N1C(=O)C=CC1=O (stereo not drawn) [3-13] | 7.84 | 8 | 21.50% | 8 | 92.96% | 64.20% | 85.77% | 8 | 100.00% | 74.30% | 93.58% | 8 | 99.68% | 93.68% | 98.18% | 8 | 100.00% | 94.99% | 98.75% | 7 h | MS DAR ([1]; incubation 24 h, pH 7.4, 22 °C): 7.90; MS DAR ([1]; incubation 24 h, pH 7.4, 37 °C): 7.90; MS DAR ([1]; incubation 24 h, pH 8.0, 22 °C): 7.90; MS DAR-T = 168 h ([2]; incubation 168 h): 7.88; Maleimide ring opening ratio (%) at T = 168 h ([2]; incubation 168 h): 98.33%; half-life ([3]; pH 7): 1.7 h; RO (%) HC ([3]; pH 7, time point 1 h): 43.63%; RO (%) Total ([3]; pH 7, time point 1 h): 38.10%
8 | CN(C)C(=O)CCOCCC(CN)N1C(=O)C=CC1=O (stereo not drawn) [3-14] | 8.00 | 8 | 17.39% | 8 | 67.87% | 32.97% | 59.15% | 8 | 85.71% | 77.46% | 83.65% | 8 | 95.45% | 72.00% | 89.59% | 8 | 99.69% | 95.83% | 98.73% | 24 h | MS DAR ([1]; incubation 24 h, pH 7.4, 22 °C): 7.98; MS DAR ([1]; incubation 24 h, pH 7.4, 37 °C): 8.00; MS DAR ([1]; incubation 24 h, pH 8.0, 22 °C): 8.00; MS DAR-T = 168 h ([2]; incubation 168 h): 8.00; Maleimide ring opening ratio (%) at T = 168 h ([2]; incubation 168 h): 97.15%; half-life [3, 4]: 2 h; RO (%) HC ([3]; pH 7, time point 1 h): 46.79%; RO (%) Total ([3]; pH 7, time point 1 h): 39.44%
